Columns and labels:
[1] = target: T1, NCR1 extracellular domain fused to a generic transmembrane domain, on tetracycline-inducible FlpIn cells (human, UniProt O76036 22-258); experiment: flow cytometry, Fab on tetracycline-inducible cells over-expressing the ECD (FIG. S5)
T1 construct: extracellular domain; HEK293 FlpIn cells, expression on tetracycline addition; also called NCR1 over expression cell line; not shown: transmembrane domain of platelet-derived growth factor (so in the source) with a HA tag
Experimental: (§1) To investigate the specificity of both activating and non-functional antibodies for their receptor targets, we developed a tetracycline-inducible cell line for each protein target—CD16, NCR1, NCR3, CD244, TNFRSF9, and TNFSF4. The ECDs of these proteins were fused to a generic transmembrane domain and were expressed upon tetracycline addition.
(§2) Titrations were performed on primary human NK cells or tetracycline induced overexpression cell lines as indicated. When tetracycline induced overexpression cell lines were used, cells were dosed with 10 μg/mL tetracycline for 2 days prior to staining. The starting concentration of each Fab or bispecific antibody was 1 μM, and serial 1:5 dilutions were performed. Antibodies were incubated with cells for 1 hr at 4° C., washed 2 times in 3% BSA in PBS pH 7.4, and stained for 30 min with an Alexafluor-647 conjugated goat anti-human IgG F(ab′)2 fragment (Jackson ImmunoResearch Laboratories) at a 1:50 dilution. After an additional 3 washes, cells were fixed and fluorescence was quantified using a CytoFLEX (Beckman Coulter). All flow cytometry data were analyzed using FlowJo software.

[2] = target: T2, NCR1 extracellular domain TEV-cleavable Fc-fusion, biotinylated (human, UniProt O76036 22-258, biotinylated (site not stated)); experiment: Fab-phage selection and Fab-phage ELISA on biotinylated ECD Fc-fusion (antigen column of Table S1)
T2 construct: extracellular domain; Antigen of the phage selections and Fab-phage ELISAs; not shown: TEV cleavage site and Fc domain
Experimental: To generate antibodies against these antigens, we expressed the extracellular domains (ECDs) of these proteins as TEV-cleavable Fc-fusions and performed Fab-phage display selections to enrich for high affinity antibody binders (FIG. S1), as previously described [Hornsby, M. et al., Mol Cell Proteomics. 14(10), 2833-2847 (2015)]. After each selection, Fab-phage ELISAs were performed to determine the relative affinity and selectivity of these binders for their antigen targets (FIG. S2).
TEV-cleavable Fc-fusion proteins were expressed and biotinylated in Expi293F cells using the standard expression protocol. Media were harvested after 4 days of expression and protein was purified by protein A affinity chromatography. Phage selections were performed according to previously established protocols1 with the Fab-phage Library E2. Non-specific binders were depleted from the library by incubating the phage pool with Fc-domain immobilized on streptavidin beads. Fab phage were selected using biotinylated Fc-fusions that were captured on streptavidin-coated magnetic beads, and were released through TEV elution. Each selection consists of four rounds. With each round, decreasing amounts of Fc-fusions (1 μM, 100 nM, 10 nM, and […]) were used. ELISAs were performed for 96 individual Fab-phage clones from the third or fourth rounds of selection to evaluate for affinity and selectivity.
ELISAs were performed as previously described1. In brief, Maxisorp plates were coated with 10 μg/mL of Neutravidin overnight at 4° C. Biotinylated target antigen (20 nM) was captured on the Neutravidin coated plates for 30 min, and then exposed to a 1:5 dilution of phage supernatants for 30 min. Bound phage were detected via a horseradish-peroxidase-conjugated anti-phage monoclonal antibody (GE Lifesciences).

[3] = target: T3, NCR1 as expressed on NK cells (human, UniProt O76036 22-304); experiment: flow cytometry, Fab titration on peripheral blood NK cells (FIG. S6)
T3 construct: whole, on cells; Primary human peripheral blood NK cells; NKL cells stably transduced with NCR1 in the bispecific cytotoxicity assay; also called peripheral blood NK cells; NCR1+ NKL cells
Experimental: To evaluate the affinity of the selected antibodies for NK cells, we titrated the nine Fab clones on peripheral blood NK cells.
as §2

[4] = target: T4, CD244 extracellular domain fused to a generic transmembrane domain, on tetracycline-inducible FlpIn cells (UniProt Q9BZW8 22-229); experiment: flow cytometry, Fab on tetracycline-inducible cell lines over-expressing each ECD (FIG. S5)
T4 construct: extracellular domain; not shown: transmembrane domain of platelet-derived growth factor (so in the source) with a HA tag
T4 sequence (looked up): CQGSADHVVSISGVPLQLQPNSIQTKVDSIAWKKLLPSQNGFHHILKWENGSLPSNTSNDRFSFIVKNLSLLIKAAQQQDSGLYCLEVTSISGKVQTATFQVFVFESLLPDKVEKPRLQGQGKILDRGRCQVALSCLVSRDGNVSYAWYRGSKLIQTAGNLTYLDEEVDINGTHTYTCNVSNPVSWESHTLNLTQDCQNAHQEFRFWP
Experimental: as §1, §2

[5] = target: T5, TNFSF4 extracellular domain fused to a generic transmembrane domain, on tetracycline-inducible FlpIn cells (UniProt P23510 51-183); experiment: as above
T5 construct: extracellular domain; also called OX40L; not shown: transmembrane domain of platelet-derived growth factor (so in the source) with a HA tag
T5 sequence (looked up): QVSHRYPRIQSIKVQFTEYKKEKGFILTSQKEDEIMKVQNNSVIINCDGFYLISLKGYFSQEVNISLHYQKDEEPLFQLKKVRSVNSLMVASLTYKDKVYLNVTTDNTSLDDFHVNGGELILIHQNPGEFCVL
Experimental: as §1, §2

[6] = target: T6, TNFRSF9 extracellular domain fused to a generic transmembrane domain, on tetracycline-inducible FlpIn cells (UniProt Q07011 24-186); experiment: as above
T6 construct: extracellular domain; also called 4-1BB; not shown: transmembrane domain of platelet-derived growth factor (so in the source) with a HA tag
Experimental: as §1, §2

[7] = target: T7, CD16 extracellular domain fused to a generic transmembrane domain, on tetracycline-inducible FlpIn cells (human, UniProt P08637 17-208); experiment: as above
T7 construct: extracellular domain; HEK293 FlpIn cells, expression on tetracycline addition; also called CD16 over expression cell line; CD16A; not shown: transmembrane domain of platelet-derived growth factor (so in the source) with a HA tag
Experimental: as §1, §2

[8] = target: T8, NCR3 extracellular domain fused to a generic transmembrane domain, on tetracycline-inducible FlpIn cells (human, UniProt O14931 19-135); experiment: as above
T8 construct: extracellular domain; HEK293 FlpIn cells, expression on tetracycline addition; also called NCR3 over expression cell line; not shown: transmembrane domain of platelet-derived growth factor (so in the source) with a HA tag
T8 sequence (looked up): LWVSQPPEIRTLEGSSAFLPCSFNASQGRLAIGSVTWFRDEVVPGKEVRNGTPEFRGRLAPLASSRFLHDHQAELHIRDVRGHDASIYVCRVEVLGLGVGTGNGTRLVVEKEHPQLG
Experimental: as §1, §2

T1 sequence (O76036 22-258): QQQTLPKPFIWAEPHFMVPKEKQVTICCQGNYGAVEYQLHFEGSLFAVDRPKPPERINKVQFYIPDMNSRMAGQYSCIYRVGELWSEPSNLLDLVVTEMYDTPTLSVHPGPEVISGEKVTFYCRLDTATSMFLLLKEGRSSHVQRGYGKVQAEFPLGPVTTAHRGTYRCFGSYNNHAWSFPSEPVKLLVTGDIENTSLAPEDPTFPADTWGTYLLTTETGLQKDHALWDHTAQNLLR
T2 sequence (O76036 22-258): as above
T3 sequence (O76036 22-304): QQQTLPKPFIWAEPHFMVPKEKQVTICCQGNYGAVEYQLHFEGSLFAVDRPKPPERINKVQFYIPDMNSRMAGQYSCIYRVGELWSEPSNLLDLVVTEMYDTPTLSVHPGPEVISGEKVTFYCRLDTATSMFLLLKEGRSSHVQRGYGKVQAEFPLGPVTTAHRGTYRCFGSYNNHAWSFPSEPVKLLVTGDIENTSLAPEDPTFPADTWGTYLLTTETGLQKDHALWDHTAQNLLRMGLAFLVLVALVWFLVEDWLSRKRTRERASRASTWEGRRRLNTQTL
T7 sequence (P08637 17-208): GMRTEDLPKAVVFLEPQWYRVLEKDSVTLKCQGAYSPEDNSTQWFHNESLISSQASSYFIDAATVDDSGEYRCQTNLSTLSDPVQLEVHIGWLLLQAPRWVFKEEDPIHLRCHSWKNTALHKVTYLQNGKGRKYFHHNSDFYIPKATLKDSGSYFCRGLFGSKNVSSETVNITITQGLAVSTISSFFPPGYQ

B1: NCR1.11 Fab (Fab)
heavy: EVQLVESGGGLVQPGGSLRLSCAASGFNVYYSYIHWVRQAPGKGLEWVASISSYYGSTYYADSVKGRFTISADTSKNTAYLQMNSLRAEDTAVYYCARSRYLQDYWSSWWVSWYGLDYWGQGTLVTVSSASTKGPSVFPLAPSSKSTSGGTAALGCLVKDYFPEPVTVSWNSGALTSGVHTFPAVLQSSGLYSLSSVVTVPSSSLGTQTYICNVNHKPSNTKVDKKVEPKSCDKTHT
light: DIQMTQSPSSLSASVGDRVTITCRASQSVSSAVAWYQQKPGKAPKLLIYSASSLYSGVPSRFSGSRSGTDFTLTISSLQPEDFATYYCQQSSSSLITFGQGTKVEIKRTVAAPSVFIFPPSDSQLKSGTASVVCLLNNFYPREAKVQWKVDNALQSGNSQESVTEQDSKDSTYSLSSTLTLSKADYEKHKVYACEVTHQGLSSPVTKSFNRGEC
notes: also called anti-NCR1 Fab #27
[1]
  binding result: binds
[2]
  binding result: binds
[3]
  binding result: binds
[4]
  binding result: no binding
[5]
  binding result: no binding
[6]
  binding result: no binding
[7]
  binding result: no binding
[8]
  binding result: no binding
